# Reference: the supplement of paper PMC7125110
# ± gives the standard error. Variants at the floor of the assay were thinned out.
# B1: glmS ribozyme (parent)
# chain: AUAAAAGCGCCAGAACUACAGAAAUGUAGUUGACGAGGAGGAGGUUUAUCGAAUUUUCGGCGGAUGCCUCCAAA
# Tests used:
# Conditions in all cases: with glucosamine-6-phosphate
# glucosamine-6-phosphate [1] = variants of: B1; assay: self-cleavage kobs at 640 uM GlcN6P; higher = faster cleavage; RNA array
# Procedure, shortened: (§1)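 Ribozyme variants carrying barcodes were transcribed in situ on sequenced MiSeq chips by E. coli RNA polymerase and tracked at 37 °C with a hybridised Cy3 probe. They were exposed to 40 μM to 10 mM glucosamine-6-phosphate in HEPES/KCl/Mg(OAc)2 buffer. kobs came from exponential decay fits of normalised per-tile medians, and kcat and KM from weighted Michaelis–Menten fits.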
# glucosamine-6-phosphate [2] = variants of: B1; assay: self-cleavage kobs at 2500 uM GlcN6P; higher = faster cleavage; RNA array
# Procedure, shortened: as §1
# glucosamine-6-phosphate [3] = variants of: B1; assay: self-cleavage kobs at 10000 uM GlcN6P; higher = faster cleavage; RNA array
# Procedure, shortened: as §1
Variant,self-cleavage kobs at 640 uM GlcN6P (glucosamine-6-phosphate [1]),self-cleavage kobs at 2500 uM GlcN6P (glucosamine-6-phosphate [2]),self-cleavage kobs at 10000 uM GlcN6P (glucosamine-6-phosphate [3])
AUAAAAGCGCCAGGACUACAGAAAUGUAGUUGACAAGGAGGAGGGUUAUCGAAUUUUCGGCGGAUUCCUCCAAA [A14G G35A U45G G66U],< 1e-05 s⁻¹,< 1e-05 s⁻¹,–
AUAAAAGCGCCUGAACUACAGAAAUGUAGUUGACGAGGAGGAGGAUUAUCGAAUUUUCGGCGGAGGCCUCCAAA [A12U U45A U65G],0.000665 ± 0.00016 s⁻¹,–,–
AUAAAGGCGCCAGAACUACAGAAAUGUAGUUGACGAGGAGGAGGUUUAUCGAAUUUUCGGCGGAUGGAUCCAAA [A6G C67G C68A],7.11e-05 ± 3.1e-05 s⁻¹,–,–
AUAAAAGCUCCAGAACUACAGAAAUGUAGUUGACGAGGAGGAGGUUUAUCGAACUUUCGGCGGAUGCCUCCAAA [G9U U54C],< 1e-05 s⁻¹,–,–
AUAAAAGCGCCAGAACUACAGAAAUGUAGUUGACGAGGGGGAGGUUUAUCGACUUUUCGGCGGAUGUCUCCAAA [A39G A53C C67U],0.00111 ± 0.00036 s⁻¹,0.000701 ± 0.00027 s⁻¹,–
AUAAAAGCGCUAGAACUACAGAAAUGUAGUUGACGAGGAGGAGGUUUAUCGAGUUUUCGGCGGAUACCUCCAAA [C11U A53G G66A],0.000178 ± 4e-05 s⁻¹,–,–
AUAAAAGCGCCAGAACUACAGAAAUGUAGUUGACGAGGUGGAGGUUUAUCGAAUUAUCGGCGGAUGCCUCCUAA [A39U U56A A72U],0.000916 ± 0.00022 s⁻¹,0.00356 ± 0.00049 s⁻¹,–
AUAAAAGCGCCAGAACUACAGAAAUGUAGUUGACGAGGAGGUGGUUUAUCAAAUUUUCGGCGUAUGCCUCCAAA [A42U G51A G63U],< 1e-05 s⁻¹,–,–
AUAAAAGCGGUAGAACUACAGAAAUGUAGUUGACGAGGAGAAGGUUUAUCGAAUUUUCGGCGGAUGCCUUCAAA [C10G C11U G41A C70U],< 1e-05 s⁻¹,–,–
AUAAAAGCGCCAGAACUACAGAAAUGUAGUUGACGAGGAAGGGGUUUAUCGAUUUUUCGGCGGAUGCCUCCAAA [G40A A42G A53U],0.000733 ± 0.00023 s⁻¹,0.000522 ± 0.00021 s⁻¹,–
AUAAAAGCCCCAGAACUACAGAAAUGUAGUUGACGAGGAGGAGGUUUAUGGAAUUUUCGCCGGAUGCCUACAAA [G9C C50G G60C C70A],0.000151 ± 4.9e-05 s⁻¹,0.000123 ± 3.7e-05 s⁻¹,–
AUAAAAGCGCCAGAACUACAGAAAUGUAGUUGACGAGGUGUUGGUUUAUCGAAUUUUCGGCGGAUGCCUCCAAA [A39U G41U A42U],5.35e-05 ± 1.4e-05 s⁻¹,0.000135 ± 2.2e-05 s⁻¹,–
AUAAAGGCGCCAGAGCUACAGAAAUGUAGUUGACGAGGAGGGGGUUUAUCGAAUUUUCGGCGGAUGCCUCCAAA [A6G A15G A42G],0.000137 ± 4.7e-05 s⁻¹,–,–
AUAAAGGCGCCAGAACUACAGAAAUGUAGUUGACGAGUAGGAGGUUUAUCGAAUUUUCGGCGGAUGCCUCCAAA [A6G G38U],< 1e-05 s⁻¹,< 1e-05 s⁻¹,< 1e-05 s⁻¹
AUAAAAGCGCCAGAACUACAGAAAUGUAGUUGACGAGGAGGAGGUCUAUCGAAUUUUCCGCGGAUGCCUCCAAA [U46C G59C],< 1e-05 s⁻¹,–,–
AUAAAAGAGCCAGAACUACAGAAAUGUAGUUGACGAGGAGGAGGUUUAUCGAGUUUUCGGCGUAUGCCUCCAAA [C8A A53G G63U],< 1e-05 s⁻¹,–,–
AUAAAAUCGCCAGGACUACAGAAAUGUAGUUGACGAGGAGGAGGUUUAUCGAAUUUUCGCCGGAUGCCUACAAA [G7U A14G G60C C70A],< 1e-05 s⁻¹,–,–
AUAAAAUCGCCAGAACUACAGAAAUGUAGUUGUCGAUGAGGAGGUUUAUCGAAUUUUCGGCGAAUGCCUCCAAA [G7U A33U G37U G63A],< 1e-05 s⁻¹,< 1e-05 s⁻¹,–
AUAAAAGCGCCGGAACUACAGAAAUGUAGUUGACGAGGAGGAGGUGUAUCGAAUUUUGGGCGUAUGCCACCAAA [A12G U46G C58G G63U U69A],0.000158 ± 6.3e-05 s⁻¹,–,–
AUAAAAGCGCGAGAACUACAGAAAUGUAGUUGACGAGGAGGAGGUUUAUCGAAUUUUGGGCGGAUGCCUUCAAA [C11G C58G C70U],8.61e-05 ± 2.4e-05 s⁻¹,–,–
AUAAAAGCGCCAGAACUACAGAAAUGUAGUUGACGAGGAGGAGGUUUAUCGAAUUAUGAACGGAUGCCUCCAAA [U56A C58G G59A G60A],< 1e-05 s⁻¹,< 1e-05 s⁻¹,–
AUAAAAGCGCCAUGACUACAGAAAUGUAGUUGACGAAGAGGAGGAUUAUCGAAUUUUCGGCGGAUGCCUCCAAA [G13U A14G G37A U45A],9.84e-05 ± 2.1e-05 s⁻¹,0.000193 ± 3.6e-05 s⁻¹,–
AUAAAAGCGCCAGAACUACAGAAAUGUAGAUGACGACGAGGAGGUUUAUCGAUUUUUCGGCGGAUGCCUCCAAA [U30A G37C A53U],< 1e-05 s⁻¹,–,< 1e-05 s⁻¹
AUAAAAGCGCUCGAACUACAGAAAUGUAGUUGACGAGGAGGAGGUUUAUCGAAUUUUCGGCGGAUGCCUGCAAA [C11U A12C C70G],0.000165 ± 6.8e-05 s⁻¹,–,–

Variant,self-cleavage kobs at 640 uM GlcN6P (glucosamine-6-phosphate [1]),self-cleavage kobs at 2500 uM GlcN6P (glucosamine-6-phosphate [2]),self-cleavage kobs at 10000 uM GlcN6P (glucosamine-6-phosphate [3])
AUAAAUGCGCCAGAACUACAGAAAUGUACUUGACGAGGAGGAGGUUUAUCGAAUUAUCGGCGGAUGCCUCCAAA [A6U G29C U56A],< 1e-05 s⁻¹,–,–
AUAAAAGCGCCAGAACUACAGAAAUGUAGGUGACGAGGAGGGGGCUUAUCGAAUUUUCGGCGGAUGCCUAAAAA [U30G A42G U45C C70A C71A],< 1e-05 s⁻¹,–,–
AUAAAAGCGCGUGAACUACAGAAAUGUAGUUGACGAGGAGUAGGUUUAUCGAGUUUUCGGCGGAUGGCUCCAAA [C11G A12U G41U A53G C67G],< 1e-05 s⁻¹,–,–
AUAAAAGCGUCAGAUCUACAGAAAUGUAGUUGACAAGGAGGAGGUUUAUCGAAUUUUCGGGGGAUGCCUCCAAA [C10U A15U G35A C61G],< 1e-05 s⁻¹,< 1e-05 s⁻¹,–
AUAAAAGCGCCAGAGUUACAGAAAUGUAGUUGACGAGGAGGAGGUUUAUCGAAUUUUCGGCGGAUGUCUCCAAA [A15G C16U C67U],0.000521 ± 0.00014 s⁻¹,–,–
AUAAAAGCGCCAGAGCUACAGAAAUGUAAUUGACGAGGAGGCGGUUUAUCGAAUUUUCGGCGGAUGCCUCCAAA [A15G G29A A42C],< 1e-05 s⁻¹,–,–
AUAAAAGUACCAGAACUACAGAAAUGUAUUUGACGAGGAGGAGGUUUAUCGAAUUUUUGGCGGAUGCCUCCAAA [C8U G9A G29U C58U],< 1e-05 s⁻¹,< 1e-05 s⁻¹,–
AUAAAUGCGCCAGAACUACAGAAAUGUAGUUGGCGAGGAGGAGGUUUAUCGAAUUUUCGGCGGAUGCCGCCAAA [A6U A33G U69G],9.46e-05 ± 3.6e-05 s⁻¹,0.000191 ± 6.5e-05 s⁻¹,–
AUAAAAGCGCCAGAACUACAGAAAUGUAGUACACGAGGAGGAGGUUUAUCGAAUUUUCGGUGGAUGCCUCCAAA [U31A G32C C61U],< 1e-05 s⁻¹,–,–
AUAAAUGCGCCAGAACUACAGAAAUGUAGUUGACGAGGAGGAGGUUUAUAGAAUUUUCGACGGAUGCCUACAAA [A6U C50A G60A C70A],0.000136 ± 5e-05 s⁻¹,–,–
AUAAAAGCGCCAGAACUACAGAAAUGUAGUUUACGAGGAGGAGGUUUAUUGAAUUUUCGGUGGAUGCCUCCAAA [G32U C50U C61U],< 1e-05 s⁻¹,< 1e-05 s⁻¹,–
AUAAAAGCGCCAGAACUACAGAAAUGUAGUUAACGAGGAGGAGGUUUAUCGAACUUUCGGCGGAUGUCUCCAAA [G32A U54C C67U],0.000136 ± 3.3e-05 s⁻¹,0.000349 ± 9.2e-05 s⁻¹,–
AUAAAAGCGCCAGAACUACAGAAAUGUAGUUCACGAGGAGGAGGUUUUUCGAAUUUUCGGCGGCUGCCUCCAAA [G32C A48U A64C],< 1e-05 s⁻¹,–,–
AUAAAAGCGCCAGAACUACAGAAAUGUAGUUGACGAGGAGGAGGUGUAUCGAAUUUUCGGCGAAUGCCUGCAAA [U46G G63A C70G],5.25e-05 ± 2.2e-05 s⁻¹,–,–
AUAAAAGUGCCAGAACUACAGAAAUGUAGUUGACGAGGAGGAGGUUUAUCGAAUUUUUGGCCGUUGCCUCCAAA [C8U C58U G62C A64U],< 1e-05 s⁻¹,< 1e-05 s⁻¹,–
AUAAAAGCGCCAGAACUACAGAAAUGUAGUUGACGAGGAGGCGGUUUAUCGAAUUUUCGGCGGAGGCCGCCAAA [A42C U65G U69G],0.000819 ± 0.00019 s⁻¹,0.00302 ± 0.00061 s⁻¹,0.00402 ± 0.001 s⁻¹
AUAAAAGCGCCAGAUCUACAGAAAUGUAGUUGACGAGGAGGAGGUUUAUGGAAUUUUCGGCGGAUGCCUCGAAA [A15U C50G C71G],0.000108 ± 2.6e-05 s⁻¹,0.000148 ± 5.1e-05 s⁻¹,–
AUAAAAGCGCCAGAACUACAGAAAUGUAGUUGACGAGGAGGAGGUUUAUCGAAUUUUCGGCGGAUGCCCGCAAA [U69C C70G],4.82e-05 ± 1.6e-05 s⁻¹,–,–
AUAAAAGCGCCAGAACUACAGAAAUGUCGUUGACGAGGAGGAGGUUUAUCGAAUUUUCGGCGGAUGCCUCCAAA [A28C],0.0103 ± 0.0026 s⁻¹,–,0.0679 ± 0.022 s⁻¹
AUAAAAGCCCCAGAACUACAGAAAUGUAGUUGACGAGGAGGAGGUUUGUCGAAUUUUCGGCGGAUGGAUCCAAA [G9C A48G C67G C68A],9.72e-05 ± 4.1e-05 s⁻¹,–,0.000631 ± 0.00016 s⁻¹
AUAAAAGCGUCAGAACUACAGAAAUGUAGUUGACGAGGAGGAGGUUUAUCGAAUUUUCGGCGCAGGCCUAAAAA [C10U G63C U65G C70A C71A],0.000118 ± 4.2e-05 s⁻¹,–,< 1e-05 s⁻¹
AUAAAAGCGCCAGAACUACAGAAAUGUAGUCGACGAGGAGGAGGUCUAUCGAAUUUUCGGCGGAUGCCUCCAAA [U31C U46C],7.34e-05 ± 2.3e-05 s⁻¹,0.000204 ± 3.7e-05 s⁻¹,0.000295 ± 8e-05 s⁻¹
AUAAAAGCGCCAGAUCUACAGAAAUGUAGUUGACGAGGAGGAGGAUUAUCGACUUUUCGGCGGAUGCCUCCAAA [A15U U45A A53C],0.000941 ± 0.00022 s⁻¹,–,–
AUAAAAGAGCCCGAACUACAGAAAUGUAGUUGUCGAGGAGGAGGUUUAUCGAAUUUUCGGCGGGUGCCUCCAAA [C8A A12C A33U A64G],< 1e-05 s⁻¹,< 1e-05 s⁻¹,–
